{"source": "patent US20120321699A1", "about": "(published 2012)", "binders": {"B1": {"name": "CH01 (antibody, V domains shown)", "VH": "EVQLVESGANVVRPGGSLRLSCKASGFIFENFGFSWVRQAPGKGLQWVAGLNWNGGDTRYADSVKGRFRMSRDNSRNFVYLDMDKVGVDDTAFYYCARGTDYTIDDAGIHYQGSGTFWYFDLWGRGTLVSVSS", "VL": "EIVLTQSPGTLSLSPGERATLSCRASHNVHPKYFAWYQQKPGQSPRLLIYGGSTRAAGIPGKFSGSGSGTDFTLTISRVDPEDFAVYYCQQYGGSPYTFGQGTKVEI"}}, "target": "HV00044 (6240 TZ5 140C) (HIV-1)", "assay": "SPR", "data": [{"binder": "B1", "values": [{"measurement": "Kd", "value": 300, "unit": "nM"}]}]}
